In the DeepSol protein solubility set:

Assay: soluble on expression in E. coli; label from the status in PepcDB or PDB records

Sequence | soluble on expression in E. coli
MDKNINISVKVWRQKGPKEKGHFETYQLQNISQSASFLEMMDILNEQLIKEHKAPVVFDHDCREGICGMCSLYINGHPHGPDDSITTCQLHMRRFDDGDTITIEPWRSAGFPVIRDLMVDRSAYDKIIQSGGFVSVNTGGIPDANAIPISKKNADEAMDAAACIGCGACAAACKNGSAMLFVSAKVSQLALLPQGRIEAARRAKAMVAKMDELGFGNCTNTRACEMECPKNVSISHIARLNREYIVAKNRD | not soluble
MGSDKIHHHHHHMIIGMSIARMFSRCTPIPNLSVRYNLDLYHLEFPIMAFIRQEDFIDSIHQALQYIACYHSPDFLAAMHDAWQREPSPAARDAIGQILINSYLCAQGQRPLCQDTGIVVAFVSVGMNVQWQASMSLQEMVDEGVRRAYLDPDNRLRASIVRDPAGKRLNTRDNTPSVVHVDMVPGDTVEIHIAAKGGGSENKSKLAMLEPSDDLIEWVLKTVPEMGAGWCPPGVLGIGIGGTAEKAVLLAKQSLFAPIDIQALRARGPQTRAEELRLEIYEKVNRLGIGAQGLGGLTTVLDVKILEAPTHATSLPVAIIPNCAATRHVHFTLDGTGPARLPAPRLEDWPRVALDASTPMRRVDLGKVTREDVISWQPGEKLLLSGKLLTGRDAAHKRIVDLIARGEPMPEGLDFTNRFIYYVGPVDPVGDEIIGPAGPTTATRMDRFTETMLTQTGLLGMIGKAERGEATVQSIKRHQSVYLIAIGGAAYLISQAIKASRIVAFADLGMEAIYEFTVEDMPVTVAVDSRGHAVHDTGPAEWRPRIANIPIFSE | not soluble
MHHHHHHGTSLYKKAGSENLYFQGITTRTARQCGQADYGWLQARYTFSFGHYFDPKLLGYASLRVLNQEVLAPGAAFQPRTYPKVDILNVILDGEAEYRDSEGNHVQASAGEALLLSTQPGVSYSEHNLSKDKPLTRMQLWLDACPQRENPLIQKLALNMGKQQLIASPEGAMGSLQLRQQVWLHHIVLDKGESANFQLHGPRAYLQSIHGKFHALTHHEEKAALTCGDGAFIRDEANITLVADSPLRALLIDLPV | soluble
MSLMIVYKGEKMQFIRVNTLKINPEVLKKRLENKGVVLEKTFLDYAFEVKKSPFSIGSTPEYLFGYYMPQSISSMIPPIVLNPREDDFILDMCAAPGGKTTHLAQLMKNKGTIVAVEISKTRTKALKSNINRMGVLNTIIINADMRKYKDYLLKNEIFFDKILLDAPCSGNIIKDKNRNVSEEDIKYCSLRQKELIDIGIDLLKKDGELVYSTCSMEVEENEEVIKYILQKRNDVELIIIKANEFKGINIKEGYIKGTLRVFPPNEPFFIAKLREGGSHHHHHH | soluble
MGSDKIHHHHHHVAKQKFKITNWPTYNKALINRGSITFWLDDEAIQAWYESATPSSRGRPQRYSDLAITTVLVIKRVFRLTLRAAQGFIDSIFTLMNVPLRCPDYTSVSRRAKSVNVSFKTFTRGEIAHLVIDSTGLKVFGEGEWKVKKHGQERRRIWRKLHLAVDSNTHEIICADLSLNNVTDSEAFPGLIRQTHRKIRAAAADGAYDTRLCHDELRRKKISALIPPRKGAGYWPGEYADRNRAVANQRMTGSNARWKWTTDYNRRSIAETAMYRVKQLFGGSLTLRDYDGQVAEAMALVRALNKMTKAGMPESVRIA | not soluble
MSLSNYSTGELAKLCNVTTRTIQYYDRKGILKPQGFTEGKRRVYTEQQRQTLELILLLKDLGCALSDIDMLLKGEGTLKTLNTLLTMKQQEINQQVKQQQAVLNKIKNVQYYVNEGHHHHHH | not soluble
MGSDKIHHHHHHMGDLSDIRVFLAVAQQRSFTAAARQLSMTPPTVTRSVSALEQSLGVQLLLRTTRQVSLTSAGAVYAARVEPLIRQFDQVRDDLREEQGDVAGLIRINAPLSLGQQLLPDIVSGFRAEHPQVSVSLSLTDRFIDIVSERFDLALRVSEAPRDRSTIWRKVCRVRRILVASPGYLAIFGTPETPDDLSRHGCIAYDEEAISETWELTNGGRTRKALAGKVLAANNGELIAKLVEDGQGLALLPHFIVGDALASARRAEAGPCRVGASGALADIVLSALRETADARCEILGLLRKICYPYAPAVKKRRTQVLFSRRKASFPAKGEHMLQEFDDALRHASFESDLNGLYAALLLSRSFGSSESRIRSLGRSLPDLSQQKSRFVWRRE | not soluble
MWTVTKIRADYEGWWLFSDWPENIVEKYQYQDFDDMFKHYQQLINQCKVQFDNYVTGKYNIYAFYNNCDMNYCEDCEEDLQIFYSFIVLQNNEVYYKLPIIDLEHHHHHH | soluble
MGSDKIHHHHHHMNWLNLRAIVPSDKQNMPNKKNKAAFARTVTKNGAPDVSDIKNSYDDLMYESGAFSQTAINNLEARARLMGLQPAPAANAKVLELGCSMGGNIITQALYYPDAEFTGIDLSGRQVAQGNAIIEKMGLKNVRLEEKDILTVDESFGKFDYIIVHGIWSWVPDAVKDKIFSICRNNLTEHGIAYISYNVYPGWKRQEQLREIMQFSGRDVLEEPLEARTRKGLDALKALAEILENDKGLGGGGKLPAIQKILNHNFYYIAHEYMEAFNDPIYVNGFIEWANRHRLAYIGDTDLHVSFVSWMAEHTRERILALAGGDYIAKEFYSDILSDRQFRRSLLCREEVGDTVRRDESVAVEVIESLNFRPARGETINFDENDTLLSGIRDVMKTGEPFKTEDVAENLARRFPGLTFDRMKINSQLLLQTILGRFSVSSDNAGKPFFEDHKTYVPARFTDYVAAFVEHGAEAFVRPANRYNESTPSFGYGHLYIMRQLSRPTSKQAVIDAVAENLNIVSTTPDGLTFHPPAEVYVEEILADLADRHFLVSAD | not soluble
MQNFTLHTPTKVLFGTGQIAQLTQEIPADARILITYGGGSIKQNGVLDQVHQALKGFDFLEFGGIEPNPTYETLMKAVELCRTEGINFLLAVGGGSVLDGTKFIAAAVNYPQDPWHILETTGRDITEALPMGSVLTLPATGSEANNGAVISRRSTGDKQHFFSPHVQPLFAVLDPVVTYTLPPRQVANGVVDAFVHTIEQYLTYPVDAKVQDRFAEGLLLTLIEEGPKALKDPENYNVRANIMWSATMALNGLIGAGVPQDWATHMLGHELTARHGLDHAQTLAVVLPALLVAKKQQKRAKLLQYAERVWGLREGSEDQRIDAAIEATRHFFESLGVATRLSAYKLDGSSIPDLIKKLEEHGMTKLGEHSDITLADSKRIYEAAV | not soluble
MTKIFEAKVLAVGPEALSMIKDANMLILFGEEAPQDLADYCYKIDNKNLSGHIKKGGHLVINGNDCQITAVGSVVEKNLTGLGHITISLDGSKESSLPGTLHIQAEFPVQLEAGSLIQIFD | soluble
MSLSERTFNWKNKDIRAQVDVVDSKLLPTLLLRNALVLNPYVKQWLKKNIWIYQDRIVYVGHELPNRAEEIHTIDCEGKYIVPGYIEPHAHPFQIYNPQTLAEYVSQYGTTTFVNDNLFLLLQSGKKKALTILNELKKQPVQYFWWSRYDLQTEVLNEDHVLPFDVRKQWIEHPDVIQGGEMTGWPRLVDGDDLMLHCMQATKKQRKRIEGHFPGASDKTLTKMKLFGADCDHEAMTGDEVMRRLELGYYVSLRNSSIRPDVRKILQELHEKGFRYYDHFFYTTDGATPNFYKGGMTNELIRIALEEGVPAIDAYNMASFNIAKYYQMDDYLGVVGPGRLASLNILEDPLNPNPVTVLSKGTILRENGCDLKAFTKTDWHKGGLVPLELSYDMTMDDLQFSMPMGVKMRNAVIMEPYMIEIDNSMEQLSFDHDESYLTMLDRHGKWRVNTMIKGFASSVQGFVSSFTTTGDIVAIGKNKADMLLAFARMKEIGGGIVLAENGNILHEIPLALCGCASSEAYEDVLEKEQKLRDLLTERGYEFCDPIYTLLFLQSTHLPYIRITPRGIFDVMKKTVLFPSIMREGHHHHHH | not soluble
GRISMTVKKLYFIPAGRCMLDHSSVNSALTPGKLLNLPVWCYLLETEEGPILVDTGMPESAVNNEGLFNGTFVEGQILPKMTEEDRIVNILKRVGYEPDDLLYIISSHLHFDHAGGNGAFTNTPIIVQRTEYEAALHREEYMKECILPHLNYKIIEGDYEVVPGVQLLYTPGHSPGHQSLFIETEQSGSVLLTIDASYTKENFEDEVPFAGFDPELALSSIKRLKEVVKKEKPIIFFGHDIEQEKSCRVFPEYI | soluble
MSLIITGVDVHVVNLPLTSPFRSSFETKTGETRTVVRVTTDDGHVGWGETMWGSPVARLTEQLSSSLIGKSPFALEEFHATHTMVPFFYGYIGYAALAGLDVACWDLMGKITGRPLTDLIGGRVRDTVPITALITRADAPDAPPADLPVALAEHAAKVVAIGGFTAVKLKGTKDVDGDVKIMRALRAVLPDVELRVDPNAAWSVPESIRAGLRMEELDLEYLEDPCWGIDGMARVREKIRIPLCTNMCVVAFEDFAPAMRLGAVDVIHGDVYKWGGEGHHHHHH | not soluble
MTHQIVTTQYGKVKGTTENGVHKWKGIPYAKPPVGQWRFKAPEPPEVWEDVLDATAYGPICPQPSDLLSLSYTELPRQSEDCLYVNVFAPDTPSQNLPVMVWIHGGAFYLGAGSEPLYDGSKLAAQGEVIVVTLNYRLGPFGFLHLSSFDEAYSDNLGLLDQAAALKWVRENISAFGGDPDNVTVFGESAGGMSIAALLAMPAAKGLFQKAIMESGASRTMTKEQAASTAAAFLQVLGINESQLDRLHTVAAEDLLKAADQLRIAEKENIFQLFFQPALDPKTLPEEPEKSIAEGAASGIPLLIGTTRDEGYLFFTPDSDVHSQETLDAALEYLLGKPLAEKAADLYPRSLESQIHMMTDLLFWRPAVAYASAQSHYAPVWMYRFDWHPEKPPYNKAFHALELPFVFGNLDGLERMAKAEITDEVKQLSHTIQSAWITFAKTGNPSTEAVNWPAYHEETRETVILDSEITIENDPESEKRQKLFPSKGE | soluble
MKKSNIKTLEQFKDQNYGKKGTAKRDSLEMGYDTFKIGALIQEARIEKGMTQEELAIKCGTTKSYISRIENNIKEVRISTLQKIVELGFGGQLQLSIKF | not soluble
MAHHHHHHMVSASPPQRDRGSPPTRPLSEPQDVDAPAAGTVQALRQAVEAQEACVRLLRARQAAREALLRHTRRLLTADDSIEWPGSVEQLVRQVEASLHKLQQAHSEAAAPAATTADNVAPTSAPSRSPRNAAGDADPSADPLARIFHSGVEAQLAAVAEPPHTLPASTLASRSSTAKRRKEAGESGLTNAVSTTSPPPGGPFPPRSAAMTALLARSASRQEAGHAAMLAALSALELSLMSNSGATEVGRDVHNAEPAWLRQVDSDSANDDDAAPEEQQQEKEGNRGDIASSDYSDDFECGSSTSSGADD | not soluble
MGHHHHHHGGHMSLPKQIDHEKRRKQIAEATWRVILERGMEGASARNIAKEAGLSLGALRHYFSTQDELLAFAMKLVQEKVTDRIKDIAVRDLLPKEKVLQILLEMVPTNEETIREMEVWFAFTAYARHKKDMFDASHDGIFSGMRNLIAYLDESDLLKQNADKDIEAERLYALVDGLALHAMLDPVRVNKDRIKRVIMQHVESICVEDTRETQKRHPEGGS | soluble
MGHHHHHHSHEPRVNTSALQKIAADMSNIIENLDTRELHFEGEEVDYDVSPSDPKIQEVYIPFSAIYNTQGFKEPNIQTYLSGCPIKAQVLEVERFTSTTRVPSINLYTIELTHGEFKWQVKRKFKHFQEFHRELLKYKAFIRIPIPTRRHTFRRQN | not soluble
MPGQPFGVYLHVPFCLTRCGYCDFNTYTPAQLGGVSPDRWLLALRAELELAAAKLDAPTVHTVYVGGGTPSLLGGERLATLLDMVRDHFVLAPDAEVSTEANPESTWPEFFATIRAAGYTRVSLGMQSVAPRVLATLDRVHSPGRAAAAATEAIAEGFTHVNLDLIYGTPGESDDDLVRSVDAAVQAGVDHVSAYALVVEHGTALARRVRRGELAAPDDDVLAHRYELVDARLSAAGFAWYEVSNWCRPGGECRHNLGYWDGGQWWGAGPGAHGYIGVTRWWNVKHPNTYAEILAGATLPVAGFEQLGADALHTEDVLLKVRLRQGLPLARLGAAERERAEAVLADGLLDYHGDRLVLTGRGRLLADAVVRTLLG | not soluble
MSQEIYDYANQLERAVRALPEYQKVLEVKEAIQADVSASELFDEFVAMQEKIQGMMQSGQMPTAEEQTSIQELSQKIEANDQLKAYFEAQQALSVYMSDIERIVFAPLKDLVK | not soluble
